Laboratory results published in paper PMC10851674 (Analytical chemistry, 2022).

Target: T1, rat cytochrome P450 reductase (rat, UniProt P00388 1-678)
T1 sequence (looked up): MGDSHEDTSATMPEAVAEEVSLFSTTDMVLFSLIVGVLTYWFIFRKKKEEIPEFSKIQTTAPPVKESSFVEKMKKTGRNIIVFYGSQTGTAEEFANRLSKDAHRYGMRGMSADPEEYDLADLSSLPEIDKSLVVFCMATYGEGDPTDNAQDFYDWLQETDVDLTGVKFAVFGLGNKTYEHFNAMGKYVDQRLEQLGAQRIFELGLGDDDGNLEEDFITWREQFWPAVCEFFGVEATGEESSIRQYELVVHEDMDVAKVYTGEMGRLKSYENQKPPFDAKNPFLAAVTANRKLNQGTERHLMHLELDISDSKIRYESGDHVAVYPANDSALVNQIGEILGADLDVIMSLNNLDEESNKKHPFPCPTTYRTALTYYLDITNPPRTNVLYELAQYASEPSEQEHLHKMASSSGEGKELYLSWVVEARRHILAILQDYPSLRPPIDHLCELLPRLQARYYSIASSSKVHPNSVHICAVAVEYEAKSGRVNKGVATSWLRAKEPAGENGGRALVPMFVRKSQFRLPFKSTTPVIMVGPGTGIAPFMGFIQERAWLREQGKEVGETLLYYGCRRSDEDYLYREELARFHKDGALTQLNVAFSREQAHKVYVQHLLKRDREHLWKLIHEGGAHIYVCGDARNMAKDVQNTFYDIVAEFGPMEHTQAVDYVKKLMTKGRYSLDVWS
Assay: SEC

binding result: binds
B1: rabbit cytochrome P450 2B4 (enzyme, UniProt P00178 1-491, looked up)
chain: MEFSLLLLLAFLAGLLLLLFRGHPKAHGRLPPGPSPLPVLGNLLQMDRKGLLRSFLRLREKYGDVFTVYLGSRPVVVLCGTDAIREALVDQAEAFSGRGKIAVVDPIFQGYGVIFANGERWRALRRFSLATMRDFGMGKRSVEERIQEEARCLVEELRKSKGALLDNTLLFHSITSNIICSIVFGKRFDYKDPVFLRLLDLFFQSFSLISSFSSQVFELFPGFLKHFPGTHRQIYRNLQEINTFIGQSVEKHRATLDPSNPRDFIDVYLLRMEKDKSDPSSEFHHQNLILTVLSLFFAGTETTSTTLRYGFLLMLKYPHVTERVQKEIEQVIGSHRPPALDDRAKMPYTDAVIHEIQRLGDLIPFGVPHTVTKDTQFRGYVIPKNTEVFPVLSSALHDPRYFETPNTFNPGHFLDANGALKRNEGFMPFSLGKRICLGEGIARTELFLFFTTILQNFSIASPVPPEDIDLTPRESGVGNVPPSYQIRFLAR
